This is an account of results in patent publication US6461815.

For data set [1], the system named is 30S ribosomal subunit (mRNA-programmed, activated; ribonucleoprotein). As to the kind of experiment: filter. Particulars: CMN buffer 20 mM MgCl2, pH 7.2.
Data set [2] shares this test system. In words: FP. Particulars: mnm5s2U34 and other native modifications; nitrocellulose filter binding (method is filter); poly(A)-programmed; CMN buffer 20 mM MgCl2, 100 mM NH4Cl, pH 7.2, 37 C then ice.

In data set [1] (s2U at tRNA position 34, poly(A)-programmed, also bound poly(AG)-programmed 30S), “UCAGACUUUUAAUCUGA [ASLLys3(SUU), s2U34 anticodon stem-loop]” returned a Kd of 176 nM.

In the case of “E. coli tRNALys(SUU), native fully modified”, the equilibrium dissociation constant (Kd) in data set [2] worked out at 70 nM. This lies in the double-digit nanomolar range.

Regarding yeast tRNAPhe(GmAA), native, in data set [1] (Gm34 and other native modifications, poly(U)-programmed), the Kd was 103 nM.

Regarding “yeast ASLPhe(GAA), unmodified anticodon stem-loop”, the equilibrium dissociation constant (Kd) in data set [1] (poly(U)-programmed) amounted to 136 nM.

By Kd is commonly meant the concentration at which binding is half-saturated. High values mean a looser complex, low ones a tighter complex.
